*1 amine or outer side, *2 acyl side, *3 side chain or, on linkers, in order; H or OH if unused. Where no end group is shown, it is not given here. Side-chain parts run from the residue outwards. [ ]: non-standard residue; d: D form. The star is where a group is joined. C18 diacid = O=C(O)CCCCCCCCCCCCCCCCC(=O)*; C16 diacid = O=C(O)CCCCCCCCCCCCCCC(=O)*; γGlu = O=C(O)[C@H](CCC(=O)[*:2])N[*:1]; Pentanoyl = CCCCC(=O)*; AEEA = NCCOCCOCC(=O)O; Aib = CC(C)(N)C(=O)O; Propionyl = CCC(=O)*; Butyryl = CCCC(=O)*
T1: CRF1R receptor (UniProt P34998 24-415, limits assumed)
T1 sequence (looked up): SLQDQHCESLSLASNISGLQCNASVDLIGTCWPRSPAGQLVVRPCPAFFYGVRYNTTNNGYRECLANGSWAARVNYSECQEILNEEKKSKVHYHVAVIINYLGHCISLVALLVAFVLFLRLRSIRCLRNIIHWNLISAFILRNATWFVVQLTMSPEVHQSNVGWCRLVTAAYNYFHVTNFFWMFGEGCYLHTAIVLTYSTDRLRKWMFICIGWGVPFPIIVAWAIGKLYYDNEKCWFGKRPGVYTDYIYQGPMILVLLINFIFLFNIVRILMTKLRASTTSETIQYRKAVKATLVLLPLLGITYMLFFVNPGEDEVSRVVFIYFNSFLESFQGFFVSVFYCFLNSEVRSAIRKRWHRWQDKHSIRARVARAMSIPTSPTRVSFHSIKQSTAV


How the values were obtained:
[1] = target: human corticotropin-releasing factor 2a (CRF2a receptor) (human), Q13324; assay: cell-based or functional assay
Sequence of human corticotropin-releasing factor 2a (CRF2a receptor) (human), Q13324 (Q13324 20-411): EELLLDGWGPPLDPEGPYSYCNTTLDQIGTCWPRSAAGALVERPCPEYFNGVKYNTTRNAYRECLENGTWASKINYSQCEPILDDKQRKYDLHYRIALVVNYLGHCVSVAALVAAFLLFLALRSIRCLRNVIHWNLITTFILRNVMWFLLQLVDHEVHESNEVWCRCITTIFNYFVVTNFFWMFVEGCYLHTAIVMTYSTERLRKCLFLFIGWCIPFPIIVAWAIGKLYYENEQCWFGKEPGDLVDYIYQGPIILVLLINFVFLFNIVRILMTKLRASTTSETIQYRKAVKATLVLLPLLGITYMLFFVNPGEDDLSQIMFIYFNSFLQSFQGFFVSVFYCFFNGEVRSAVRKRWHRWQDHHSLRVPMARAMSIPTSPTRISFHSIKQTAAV

[2] = target: T1, CRF1R receptor; assay: cell-based or functional assay

Binder | EC50 [nM] (cAMP) [1] | Emax (% I) [2] | EC50 [2]
Ac-VLSLD[dV]PIKLK([γGlu-C16 diacid])KILLEQEKQKKQREQAETNKQILAQV-NH2 (SMILES CC[C@H](C)[C@H](NC(=O)[C@H](CCC(N)=O)NC(=O)[C@H](CCCCN)NC(=O)[C@H](CC(N)=O)NC(=O)[C@@H](NC(=O)[C@H](CCC(=O)O)NC(=O)[C@H](C)NC(=O)[C@H](CCC(N)=O)NC(=O)[C@H](CCC(=O)O)NC(=O)[C@H](CCCNC(=N)N)NC(=O)[C@H](CCC(N)=O)NC(=O)[C@H](CCCCN)NC(=O)[C@H](CCCCN)NC(=O)[C@H](CCC(N)=O)NC(=O)[C@H](CCCCN)NC(=O)[C@H](CCC(=O)O)NC(=O)[C@H](CCC(N)=O)NC(=O)[C@H](CCC(=O)O)NC(=O)[C@H](CC(C)C)NC(=O)[C@H](CC(C)C)NC(=O)[C@@H](NC(=O)[C@H](CCCCN)NC(=O)[C@H](CCCCNC(=O)CC[C@H](NC(=O)CCCCCCCCCCCCCCC(=O)O)C(=O)O)NC(=O)[C@H](CC(C)C)NC(=O)[C@H](CCCCN)NC(=O)[C@@H](NC(=O)[C@@H]1CCCN1C(=O)[C@H](NC(=O)[C@H](CC(=O)O)NC(=O)[C@H](CC(C)C)NC(=O)[C@H](CO)NC(=O)[C@H](CC(C)C)NC(=O)[C@@H](NC(C)=O)C(C)C)C(C)C)[C@@H](C)CC)[C@@H](C)CC)[C@@H](C)O)C(=O)N[C@@H](CC(C)C)C(=O)N[C@@H](C)C(=O)N[C@@H](CCC(N)=O)C(=O)N[C@H](C(N)=O)C(C)C) [SEQ ID NO 33] | 0.47 nM | 13% | 
Ac-IVLSLDVPIKLK([AEEA-AEEA-γGlu-γGlu-C18 diacid])Q[Aib]LLKQERQKKQREQAEKN[Aib]QILEQV-NH2 (SMILES CC[C@H](C)[C@H](NC(C)=O)C(=O)N[C@H](C(=O)N[C@@H](CC(C)C)C(=O)N[C@@H](CO)C(=O)N[C@@H](CC(C)C)C(=O)N[C@@H](CC(=O)O)C(=O)N[C@H](C(=O)N1CCC[C@H]1C(=O)N[C@H](C(=O)N[C@@H](CCCCN)C(=O)N[C@@H](CC(C)C)C(=O)N[C@@H](CCCCNC(=O)COCCOCCNC(=O)COCCOCCNC(=O)CC[C@H](NC(=O)CC[C@H](NC(=O)CCCCCCCCCCCCCCCCC(=O)O)C(=O)O)C(=O)O)C(=O)N[C@@H](CCC(N)=O)C(=O)NC(C)(C)C(=O)N[C@@H](CC(C)C)C(=O)N[C@@H](CC(C)C)C(=O)N[C@@H](CCCCN)C(=O)N[C@@H](CCC(N)=O)C(=O)N[C@@H](CCC(=O)O)C(=O)N[C@@H](CCCNC(=N)N)C(=O)N[C@@H](CCC(N)=O)C(=O)N[C@@H](CCCCN)C(=O)N[C@@H](CCCCN)C(=O)N[C@@H](CCC(N)=O)C(=O)N[C@@H](CCCNC(=N)N)C(=O)N[C@@H](CCC(=O)O)C(=O)N[C@@H](CCC(N)=O)C(=O)N[C@@H](C)C(=O)N[C@@H](CCC(=O)O)C(=O)N[C@@H](CCCCN)C(=O)N[C@@H](CC(N)=O)C(=O)NC(C)(C)C(=O)N[C@@H](CCC(N)=O)C(=O)N[C@H](C(=O)N[C@@H](CC(C)C)C(=O)N[C@@H](CCC(=O)O)C(=O)N[C@@H](CCC(N)=O)C(=O)N[C@H](C(N)=O)C(C)C)[C@@H](C)CC)[C@@H](C)CC)C(C)C)C(C)C) [SEQ ID NO 26] | 18.6 nM | 1% | > 250 nM
IVLSLDVPIKLK([AEEA-AEEA-γGlu-γGlu-C18 diacid])Q[Aib]LLKQERQKKQREQAEKN[Aib]QILEQV-NH2 (N-terminus assumed; SMILES CC[C@H](C)[C@H](N)C(=O)N[C@H](C(=O)N[C@@H](CC(C)C)C(=O)N[C@@H](CO)C(=O)N[C@@H](CC(C)C)C(=O)N[C@@H](CC(=O)O)C(=O)N[C@H](C(=O)N1CCC[C@H]1C(=O)N[C@H](C(=O)N[C@@H](CCCCN)C(=O)N[C@@H](CC(C)C)C(=O)N[C@@H](CCCCNC(=O)COCCOCCNC(=O)COCCOCCNC(=O)CC[C@H](NC(=O)CC[C@H](NC(=O)CCCCCCCCCCCCCCCCC(=O)O)C(=O)O)C(=O)O)C(=O)N[C@@H](CCC(N)=O)C(=O)NC(C)(C)C(=O)N[C@@H](CC(C)C)C(=O)N[C@@H](CC(C)C)C(=O)N[C@@H](CCCCN)C(=O)N[C@@H](CCC(N)=O)C(=O)N[C@@H](CCC(=O)O)C(=O)N[C@@H](CCCNC(=N)N)C(=O)N[C@@H](CCC(N)=O)C(=O)N[C@@H](CCCCN)C(=O)N[C@@H](CCCCN)C(=O)N[C@@H](CCC(N)=O)C(=O)N[C@@H](CCCNC(=N)N)C(=O)N[C@@H](CCC(=O)O)C(=O)N[C@@H](CCC(N)=O)C(=O)N[C@@H](C)C(=O)N[C@@H](CCC(=O)O)C(=O)N[C@@H](CCCCN)C(=O)N[C@@H](CC(N)=O)C(=O)NC(C)(C)C(=O)N[C@@H](CCC(N)=O)C(=O)N[C@H](C(=O)N[C@@H](CC(C)C)C(=O)N[C@@H](CCC(=O)O)C(=O)N[C@@H](CCC(N)=O)C(=O)N[C@H](C(N)=O)C(C)C)[C@@H](C)CC)[C@@H](C)CC)C(C)C)C(C)C) [SEQ ID NO 25] | 5.02 nM | 6% | > 250 nM

Other lines, results leading:

EC50 [nM] (cAMP) [1] | Emax (% I) [2] | EC50 [2] | Binder
1.48 nM | 0% |  | Propionyl-VLSLDVPIKLK([AEEA-AEEA-γGlu-C18 diacid])KILLEQEKQKKQREQAETNKQILAQV-NH2 (SMILES CCC(=O)N[C@H](C(=O)N[C@@H](CC(C)C)C(=O)N[C@@H](CO)C(=O)N[C@@H](CC(C)C)C(=O)N[C@@H](CC(=O)O)C(=O)N[C@H](C(=O)N1CCC[C@H]1C(=O)N[C@H](C(=O)N[C@@H](CCCCN)C(=O)N[C@@H](CC(C)C)C(=O)N[C@@H](CCCCNC(=O)COCCOCCNC(=O)COCCOCCNC(=O)CC[C@H](NC(=O)CCCCCCCCCCCCCCCCC(=O)O)C(=O)O)C(=O)N[C@@H](CCCCN)C(=O)N[C@H](C(=O)N[C@@H](CC(C)C)C(=O)N[C@@H](CC(C)C)C(=O)N[C@@H](CCC(=O)O)C(=O)N[C@@H](CCC(N)=O)C(=O)N[C@@H](CCC(=O)O)C(=O)N[C@@H](CCCCN)C(=O)N[C@@H](CCC(N)=O)C(=O)N[C@@H](CCCCN)C(=O)N[C@@H](CCCCN)C(=O)N[C@@H](CCC(N)=O)C(=O)N[C@@H](CCCNC(=N)N)C(=O)N[C@@H](CCC(=O)O)C(=O)N[C@@H](CCC(N)=O)C(=O)N[C@@H](C)C(=O)N[C@@H](CCC(=O)O)C(=O)N[C@H](C(=O)N[C@@H](CC(N)=O)C(=O)N[C@@H](CCCCN)C(=O)N[C@@H](CCC(N)=O)C(=O)N[C@H](C(=O)N[C@@H](CC(C)C)C(=O)N[C@@H](C)C(=O)N[C@@H](CCC(N)=O)C(=O)N[C@H](C(N)=O)C(C)C)[C@@H](C)CC)[C@@H](C)O)[C@@H](C)CC)[C@@H](C)CC)C(C)C)C(C)C) [SEQ ID NO 94]
0.49 nM | 4% |  | Pentanoyl-VLSLDVPIKLK([AEEA-AEEA-γGlu-C18 diacid])KILLEQEKQKKQREQAETNKQILAQV-NH2 (SMILES CCCCC(=O)N[C@H](C(=O)N[C@@H](CC(C)C)C(=O)N[C@@H](CO)C(=O)N[C@@H](CC(C)C)C(=O)N[C@@H](CC(=O)O)C(=O)N[C@H](C(=O)N1CCC[C@H]1C(=O)N[C@H](C(=O)N[C@@H](CCCCN)C(=O)N[C@@H](CC(C)C)C(=O)N[C@@H](CCCCNC(=O)COCCOCCNC(=O)COCCOCCNC(=O)CC[C@H](NC(=O)CCCCCCCCCCCCCCCCC(=O)O)C(=O)O)C(=O)N[C@@H](CCCCN)C(=O)N[C@H](C(=O)N[C@@H](CC(C)C)C(=O)N[C@@H](CC(C)C)C(=O)N[C@@H](CCC(=O)O)C(=O)N[C@@H](CCC(N)=O)C(=O)N[C@@H](CCC(=O)O)C(=O)N[C@@H](CCCCN)C(=O)N[C@@H](CCC(N)=O)C(=O)N[C@@H](CCCCN)C(=O)N[C@@H](CCCCN)C(=O)N[C@@H](CCC(N)=O)C(=O)N[C@@H](CCCNC(=N)N)C(=O)N[C@@H](CCC(=O)O)C(=O)N[C@@H](CCC(N)=O)C(=O)N[C@@H](C)C(=O)N[C@@H](CCC(=O)O)C(=O)N[C@H](C(=O)N[C@@H](CC(N)=O)C(=O)N[C@@H](CCCCN)C(=O)N[C@@H](CCC(N)=O)C(=O)N[C@H](C(=O)N[C@@H](CC(C)C)C(=O)N[C@@H](C)C(=O)N[C@@H](CCC(N)=O)C(=O)N[C@H](C(N)=O)C(C)C)[C@@H](C)CC)[C@@H](C)O)[C@@H](C)CC)[C@@H](C)CC)C(C)C)C(C)C) [SEQ ID NO 96]
0.76 nM | 5% |  | Butyryl-VLSLDVPIKLK([AEEA-AEEA-γGlu-C18 diacid])KILLEQEKQKKQREQAETNKQILAQV-NH2 (SMILES CCCC(=O)N[C@H](C(=O)N[C@@H](CC(C)C)C(=O)N[C@@H](CO)C(=O)N[C@@H](CC(C)C)C(=O)N[C@@H](CC(=O)O)C(=O)N[C@H](C(=O)N1CCC[C@H]1C(=O)N[C@H](C(=O)N[C@@H](CCCCN)C(=O)N[C@@H](CC(C)C)C(=O)N[C@@H](CCCCNC(=O)COCCOCCNC(=O)COCCOCCNC(=O)CC[C@H](NC(=O)CCCCCCCCCCCCCCCCC(=O)O)C(=O)O)C(=O)N[C@@H](CCCCN)C(=O)N[C@H](C(=O)N[C@@H](CC(C)C)C(=O)N[C@@H](CC(C)C)C(=O)N[C@@H](CCC(=O)O)C(=O)N[C@@H](CCC(N)=O)C(=O)N[C@@H](CCC(=O)O)C(=O)N[C@@H](CCCCN)C(=O)N[C@@H](CCC(N)=O)C(=O)N[C@@H](CCCCN)C(=O)N[C@@H](CCCCN)C(=O)N[C@@H](CCC(N)=O)C(=O)N[C@@H](CCCNC(=N)N)C(=O)N[C@@H](CCC(=O)O)C(=O)N[C@@H](CCC(N)=O)C(=O)N[C@@H](C)C(=O)N[C@@H](CCC(=O)O)C(=O)N[C@H](C(=O)N[C@@H](CC(N)=O)C(=O)N[C@@H](CCCCN)C(=O)N[C@@H](CCC(N)=O)C(=O)N[C@H](C(=O)N[C@@H](CC(C)C)C(=O)N[C@@H](C)C(=O)N[C@@H](CCC(N)=O)C(=O)N[C@H](C(N)=O)C(C)C)[C@@H](C)CC)[C@@H](C)O)[C@@H](C)CC)[C@@H](C)CC)C(C)C)C(C)C) [SEQ ID NO 95]
